Test results: paper PMC12656920

Legend:
PV-3C main protease [1] = molecular target: T1, PV-3C main protease (Poliovirus, UniProt P03300 1566-1748); assay: NMR (SOFAST-HMQC peak loss); settings: protein: recombinant; tags: SUMO tag cleaved by ULP-1; 15N-labeled for NMR
PV-3C main protease [2] = molecular target: T1, PV-3C main protease; assay: NMR (SOFAST-HMQC CSP); 3C:RNA 1:0.5; settings: protein: recombinant; tags: SUMO tag cleaved by ULP-1; 15N-labeled for NMR

T1 sequence (P03300 1566-1748): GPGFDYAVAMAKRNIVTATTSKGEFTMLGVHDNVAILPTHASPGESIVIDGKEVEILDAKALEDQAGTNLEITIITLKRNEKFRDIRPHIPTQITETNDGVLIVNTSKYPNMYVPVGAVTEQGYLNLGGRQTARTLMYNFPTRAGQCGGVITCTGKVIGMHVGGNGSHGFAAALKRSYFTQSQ

Binder	binding result (PV-3C main protease [1])	binding result (PV-3C main protease [2])
CAUACUGUUGUAGGGGAA (ssRNA) [RNA-2]	binds	
GGCGGCGUACUCCGG (ssRNA) [RNA-1]		binds
